What was measured:
[1] = target: T1, Peptide antigen CNIKHVPGGGSVQIVYKPVD (human, conjugated to BSA in the ELISA (to KLH via the N-terminal cysteine in the immunogen)); assay: ELISA screening of hybridoma clones
T1 construct: also called original immunization peptide; immunizing Tau peptide
T1 peptide: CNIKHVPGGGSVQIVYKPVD
Protocol: One month after the boost immunization, antisera were collected from the mice and antibody titers assessed by ELISA to measure immunoreactivity against the original immunizing Tau peptide and both 2N4R and 1N3R recombinant Tau proteins. Briefly, either 150 ng of Peptide antigen conjugated to BSA or 50 ng of 2N4R or 1N3R recombinant Tau protein (Enzo Life Sciences, cat. no's BML-SE321 and BML-SE323 respectively) were used to coat each well of a 96-well plate (Costar cat. no. 2797) in 10 mM phosphate buffer, pH 7.0 at 37° C. for 1 hour. Plates were blocked in a final concentration of 1% BSA diluted in PBS at room temperature for 30 minutes. […] Following additional wash steps, antibody binding was detected by addition of 3,3′,5,5′-Tetramethylbenzidine (TMB) substrate. The enzymatic reaction was stopped with an equal volume of 2M H₂SO₄ and the well optical density was determined using a platereader at wavelength 450 nm.
Once mice with a high antibody titer had been determined, cells were isolated from the medial iliac lymph nodes and fused using polyethylene glycol with mouse myeloma SP2 cells to generate hybridomas. […] To give an approximation of relative binding, culture supernatant that was positive in the peptide ELISA and either recombinant protein, 2N4R or 1N3R, or both, were then evaluated in a competitive ELISA system. […]

[2] = target: T2, Tau peptide KDNIKHVSGGGSVQI (human); assay: epitope substitution scanning on peptide chip
T2 construct: Variant peptide of the substitution scan
T2 peptide: KDNIKHVSGGGSVQI
Source text: FIG. 4 illustrates the results of the murine 7G6 antibody epitope substitution scanning of the peptide sequence […] (SEQ ID NO: 26), corresponding to amino acids 294 to 308 of the human 2N4R Tau protein. Each amino acid position of the peptide was replaced by every naturally occurring amino acid possible, printed onto a glass chip, and probed with the ms7G6 antibody. FIG. 4 illustrates the results for select peptides (SEQ ID NOs 38-78, respectively). While ms7G6 antibody binding allows some variation in the second position (valine) of SEQ ID NO: 79, antibody binding is completely dependent on the proline residue of SEQ ID NO: 79. No binding of antibody 7G6 to […] (SEQ ID NO: 59) was observed. The latter is the sequence present in Tau P301S mutant protein.
The ms7G6 anti-Tau antibody was diluted to a concentration of 1 μg/mL in PBS (pH 7.4) containing 0.05% Tween 20 and 10% Rockland blocking buffer (MB-070). The diluted antibody was incubated on the chip for 16 hours at 4° C. with shaking at 140 rpm. Primary antibody was removed and the chip was washed in PBS (pH 7.4)/0.05% Tween 20. […] Fluorescence images were acquired on the LI-COR Odyssey™ Imaging System and the microarray data was finally analyzed using the PepSlide™ Analyser software.

[3] = target: T3, Human Tau 2N4R, wild type, recombinant full length (human, UniProt P10636 2-758); assay: SPR BIAcore, mAb captured by anti-mouse IgG, Tau flowed, 1:1 Langmuir
T3 construct: Full length 2N4R isoform; monomer in SPR and ELISA; heparin-induced aggregates or seeds in the functional assays; also called Tau441; Tau-441
T3 sequence (P10636 other isoform, or with tags, fused parts or gaps limits assumed): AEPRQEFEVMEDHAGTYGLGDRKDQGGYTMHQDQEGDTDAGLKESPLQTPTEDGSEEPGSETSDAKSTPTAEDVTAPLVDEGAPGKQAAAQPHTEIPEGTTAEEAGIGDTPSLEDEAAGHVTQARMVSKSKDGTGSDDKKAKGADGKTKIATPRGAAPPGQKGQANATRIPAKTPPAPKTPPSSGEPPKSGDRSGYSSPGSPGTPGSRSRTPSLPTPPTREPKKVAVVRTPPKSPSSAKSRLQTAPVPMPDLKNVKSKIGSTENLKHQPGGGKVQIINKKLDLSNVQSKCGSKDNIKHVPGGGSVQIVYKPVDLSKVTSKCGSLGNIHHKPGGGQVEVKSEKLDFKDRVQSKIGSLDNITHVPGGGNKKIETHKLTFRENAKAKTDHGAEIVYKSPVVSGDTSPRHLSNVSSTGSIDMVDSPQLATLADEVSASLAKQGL
Protocol: All experiments were performed using a BIAcore™ T-100 instrument (GE Healthcare). 10 μL anti-human IgG (monoclonal mouse anti-human Fc) from human antibody capture kit (GE Healthcare) was diluted to 25 μL/mL in 200 μL final immobilization buffer (10 mM sodium acetate, pH 5.0). The flow rate was set to 5 μL/min, flowpath 1. Fifty μL N-hydroxysuccinamide (NETS) and 50 μL 1-ethyl-3-(3-dimethylaminopropyl) carbidiimide (EDC) were mixed and injected for 420 sec to activate the CM5 chip surface. The diluted antibody was injected for 360 seconds followed by 1 M ethanolamine for 420 seconds. The flowpath was then switched to flowpath 2. A new EDC/NHS mixture was prepared and the procedure was repeated for flow cell 2. The surface was conditioned by 2 injections of 30 sec using flowpath 1, 2 at 30 μL/min of 3M MgCl₂. For the anti-mouse surface, 10 μL anti-mouse IgG (polyclonal rabbit anti-mouse IgG) from mouse antibody capture kit (GE Healthcare) was diluted to 30 μL/mL in 324 μL final immobilization buffer (10 mM sodium acetate, pH 5.0). The flow rate was set to 5 μL/min, flowpath 3. Fifty μL NHS and 50 μL EDC were mixed and injected for 420 sec to activate the chip surface. The diluted antibody was injected for 420 sec. 1 M ethanolamine was injected for 420 sec. Flow path was switched to flowpath 4. A new EDC/NHS mixture was prepared and the procedure was repeated for flow cell 4. The surface was conditioned by 2 injections of 30 sec using flowpath 3, 4 at 30 μL/min of 10 mM glycine, pH 1.7.
Binding of humanized and mouse antibodies were analyzed by BIAcore™ to determine their relative association rates (ka), dissociation rates (kd), and equilibrium binding constants (KD). Anti-mouse or anti-human antibodies were immobilized on a CM5 chip and sample mAbs were captured on the chip. 2N4R Tau was flowed over the chip and binding observed. The binding constants kₐ, kd, and KD were determined using a 1:1 Langmuir fitting model. Both 7G6-HCzu12-based mAbs had similar kₐ and kd values (Table 8). However, the kₐ of 7G6-HCzu11 was decreased, though the kd was unaffected. Therefore, human residues in the Vh3 framework impact binding to Tau.

B1: murine 7G6 antibody (antibody, mouse IgG2b, V domains shown)
VH: QVQLLQPGAELVKPGASVIMSCKASGYTFTTYWITWVKQRPGQGLEWIGDIYPGSSICNYNEKFKSKATLTVDTSSSTAYMQLNSLTSEDSAVYYCAREDGYDAWFAYWGQGTLVTVSA
VL: DVLMTQTPLSLPVSLGDQASISCRSSQSILHSNGNTYLEWYLQKPGQSPKLLICKVSNRFSGVPDRFSGSGSGTDFTLKISRVEAEDLGVYYCFQGSHVPFTFGSGTKLEIK
notes: Mouse IgG2b, kappa, purified from hybridoma; also called ms7G6; mouse 7G6
In the case of B1, the binding result [1] is reported as “binds”, the binding result [2] is reported as “no binding (tested: 1 µg/mL)” and the Kd [3] is reported as 3.31 nM. The koff [3] was 0.00153 s⁻¹ and the kon [3] was 464000 M⁻¹ s⁻¹.

From US20190112365A1 (EISAI R AND D MANAGEMENT, published 2019)
